{"source": "patent US6313088A", "about": "“8-[(2-hydroxy-4-methoxy benzoyl) amino]-octanoic acid compositions for delivering active agents” (Emisphere Technologies, Inc., priority 1997, dated 2001)", "set-up": "species or system Rats", "conditions": "rat, in vivo, 1 mg/kg", "protocol": "Rats were administered the dosing composition by intracolonic instillation."}
{"substance": "interferon", "values": [{"measurement": "Mean peak serum interferon concentration", "result": "79±100"}]}
